For orientation: IC50 means the concentration at which inhibition is half-maximal. A word on the Kd: it is the concentration at which binding is half-saturated. Higher therefore signals weaker binding.

Where “and” joins values, the source holds several entries; their conditions need not be identical. Equal entries are not always repeated. Where two headings read alike, the source gives them in different places. No end group written: not given here. Where only a bound is given, the exact number is not on record here.

Experiment [1] deals with extracellular domain of human β-Klotho (sKLB) (human) (UniProt Q86Z14). Put plainly: MST competition; GST-FGF21CT variant titrated into a constant sKLB/fl-FGF21 mixture.
For experiment [2], the target named is T1, extracellular domain of human β-Klotho (sKLB) (human, UniProt Q86Z14 53-983).
T1 construct: Made in HEK293-EBNA cells; also called WT sKLB; not shown: remnant of the TEV protease cleavage site / four-Gly linker left after the Fc tag was cut off
T1 sequence: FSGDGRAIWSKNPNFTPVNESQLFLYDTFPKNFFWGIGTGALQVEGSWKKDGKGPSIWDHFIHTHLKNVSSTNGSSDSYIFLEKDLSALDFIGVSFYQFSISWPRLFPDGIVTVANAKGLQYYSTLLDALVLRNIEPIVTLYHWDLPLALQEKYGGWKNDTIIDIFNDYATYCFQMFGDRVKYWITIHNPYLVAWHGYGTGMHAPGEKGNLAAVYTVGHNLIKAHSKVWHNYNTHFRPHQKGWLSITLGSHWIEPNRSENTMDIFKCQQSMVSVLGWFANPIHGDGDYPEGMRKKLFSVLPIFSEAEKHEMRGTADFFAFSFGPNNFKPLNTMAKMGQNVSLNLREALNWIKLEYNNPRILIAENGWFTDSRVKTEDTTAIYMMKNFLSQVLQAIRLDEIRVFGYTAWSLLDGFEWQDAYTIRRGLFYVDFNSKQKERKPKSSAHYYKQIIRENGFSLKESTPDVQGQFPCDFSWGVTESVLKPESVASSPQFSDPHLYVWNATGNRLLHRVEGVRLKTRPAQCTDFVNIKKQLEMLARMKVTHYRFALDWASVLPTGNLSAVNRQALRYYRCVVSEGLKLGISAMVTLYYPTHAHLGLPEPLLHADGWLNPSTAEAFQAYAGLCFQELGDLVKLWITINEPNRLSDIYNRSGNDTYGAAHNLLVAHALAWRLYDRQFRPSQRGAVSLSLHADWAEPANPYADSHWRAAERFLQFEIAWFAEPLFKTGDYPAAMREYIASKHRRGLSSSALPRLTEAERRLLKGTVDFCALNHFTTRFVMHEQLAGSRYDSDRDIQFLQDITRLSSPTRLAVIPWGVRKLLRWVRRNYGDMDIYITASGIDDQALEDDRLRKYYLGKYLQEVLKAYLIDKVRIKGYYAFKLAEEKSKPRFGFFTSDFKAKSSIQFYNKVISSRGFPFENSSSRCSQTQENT
The experiment is described as follows: SPR and/or MST.

The target in experiment [3] is T1, extracellular domain of human β-Klotho …. The experiment is described as follows: quantitative binding studies, method not given.
For experiment [4] the target is unchanged. Put plainly: MST; fluorescently labeled FGFR1cD2D3.
Experiment [5] shares this target. Put plainly: MST competition; GST-FGF21CT titrated into a constant sKLB/fl-FGF21 mixture. The procedure:
(§1) All MST measurements were performed using the Monolith NT.115Pico instrument (NanoTemper Technologies) with Monolith NT.115 MST Premium Coated Capillaries. Purified FGF21 was fluorescently labeled using the Monolith Protein Labeling Kit RED-NHS (NanoTemper Technologies) according to the instruction provided by the manufacturer. […] The thermophoretic movements of fl-FGF21 in each samples were monitored (LED 20%, IR laser 20%,) and the normalized fluorescence intensities (FNorm), defined as Fₕₒₜ/Fcold (where Fcold and Fₕₒₜ refer to the fluorescence intensities averaged over […] before IR laser is on and 29 s after IR laser is on, respectively), for each samples were plotted against the concentrations of sKLB. For the competition assays, the thermophoresis of fl-FGF21 was measured for samples where the concentration of fl-FGF21 and sKLB mixture was kept constant with the concentrations of GST-FGF21CT varying from 2.1 nM to 35000 nM. All the data were analyzed with the MO Affinity Analysis software (NanoTemper Technologies) provided by the manufacturer.
(§2) To measure binding of the C-terminal fragment of FGF21 (FGF21CT) to sKLB, an MST-based competition assay was used, in which GST-fused FGF21CT (GST-FGF21CT) was titrated into a constant sKLB/fl-FGF21 mixture (FIG. 6C).

For experiment [6] the target is unchanged. The experiment is described as follows: SPR; GST-FGF21CT immobilized on a sensor chip using anti-GST, sKLB in solution. A general note: Surface plasmon resonance follows binding to a sensor surface in real time, without labels.
For experiment [7] the target is unchanged. The experiment is described as follows: MST competition: GST-FGF21CT titrated into a constant mixture of sKLB and fluorescently labelled FGF21 (competitor: fl-FGF21). As for the experimental part: as §1, §2
For experiment [8] the target is unchanged. The experiment is described as above. As for the experimental part:
as §1, §2
The source holds these as a separate data set.

In another experiment the target is T2, β-Klotho lacking D2 (human, UniProt Q86Z14 53-507).
T2 sequence: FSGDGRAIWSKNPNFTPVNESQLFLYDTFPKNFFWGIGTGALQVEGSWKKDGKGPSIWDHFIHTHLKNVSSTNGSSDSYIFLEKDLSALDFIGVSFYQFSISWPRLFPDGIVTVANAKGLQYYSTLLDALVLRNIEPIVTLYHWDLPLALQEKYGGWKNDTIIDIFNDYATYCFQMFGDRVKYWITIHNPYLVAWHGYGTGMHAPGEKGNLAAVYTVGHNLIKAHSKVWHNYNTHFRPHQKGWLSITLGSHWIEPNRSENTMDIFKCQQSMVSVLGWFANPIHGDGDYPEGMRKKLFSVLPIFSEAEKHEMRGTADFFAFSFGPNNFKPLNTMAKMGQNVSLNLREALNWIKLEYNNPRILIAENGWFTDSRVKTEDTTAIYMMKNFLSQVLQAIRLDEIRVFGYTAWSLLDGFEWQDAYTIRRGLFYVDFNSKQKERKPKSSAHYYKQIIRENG
The experiment is described as follows: SPR and/or MST.

Experiment [9] has as its target T1, extracellular domain of human β-Klotho …. Put plainly: MST; 35 nM fluorescently labeled FGF21, sKLB titrated 0.03-1000 nM. As for the experimental part:
as §1
The affinity of FGF21 for sKLB was measured using MicroScale Thermophoresis or MST (Seidel et al., 2013, methods 59:301-315), where the thermophoretic movement of fluorescently-labeled FGF21 (fl-FGF21) in solution is monitored upon sKLB binding.

For experiment [10] the target is unchanged. Put plainly: MST. The procedure: The thermophoretic movements of fl-FGF21 in each samples were monitored (LED 20%, IR laser 20%,) and the normalized fluorescence intensities (FNorm), defined as Fₕₒₜ/Fcold (where Fcold and Fₕₒₜ refer to the fluorescence intensities averaged over […] before IR laser is on and 29 s after IR laser is on, respectively), for each samples were plotted against the concentrations of sKLB. For the competition assays, the thermophoresis of fl-FGF21 was measured for samples where the concentration of fl-FGF21 and sKLB mixture was kept constant with the concentrations of GST-FGF21CT varying from 2.1 nM to 35000 nM. All the data were analyzed with the MO Affinity Analysis software (NanoTemper Technologies) provided by the manufacturer.
As endocrine FGFs play important roles in the control of metabolic processes, a variety of approaches have been utilized to develop novel therapeutics that retain (and exceed in potency) the beneficial stimulatory responses of FGF19 and or FGF21 while minimizing the side effects caused by these two hormones. […] In certain non-limiting embodiments, potency of FGF21 can be enhanced by introducing mutations into its C-terminal tail that strengthen interactions with β-Klotho. An L194F mutation was introduced to increase hydrophobic interactions with neighboring amino acids in site 1 of β-Klotho. […]

Experiment [11] has as its target T3, full-length human β-Klotho (KLB), C-terminal HA-tagged, on L6 cells (human, UniProt Q86Z14 53-1044).
T3 sequence: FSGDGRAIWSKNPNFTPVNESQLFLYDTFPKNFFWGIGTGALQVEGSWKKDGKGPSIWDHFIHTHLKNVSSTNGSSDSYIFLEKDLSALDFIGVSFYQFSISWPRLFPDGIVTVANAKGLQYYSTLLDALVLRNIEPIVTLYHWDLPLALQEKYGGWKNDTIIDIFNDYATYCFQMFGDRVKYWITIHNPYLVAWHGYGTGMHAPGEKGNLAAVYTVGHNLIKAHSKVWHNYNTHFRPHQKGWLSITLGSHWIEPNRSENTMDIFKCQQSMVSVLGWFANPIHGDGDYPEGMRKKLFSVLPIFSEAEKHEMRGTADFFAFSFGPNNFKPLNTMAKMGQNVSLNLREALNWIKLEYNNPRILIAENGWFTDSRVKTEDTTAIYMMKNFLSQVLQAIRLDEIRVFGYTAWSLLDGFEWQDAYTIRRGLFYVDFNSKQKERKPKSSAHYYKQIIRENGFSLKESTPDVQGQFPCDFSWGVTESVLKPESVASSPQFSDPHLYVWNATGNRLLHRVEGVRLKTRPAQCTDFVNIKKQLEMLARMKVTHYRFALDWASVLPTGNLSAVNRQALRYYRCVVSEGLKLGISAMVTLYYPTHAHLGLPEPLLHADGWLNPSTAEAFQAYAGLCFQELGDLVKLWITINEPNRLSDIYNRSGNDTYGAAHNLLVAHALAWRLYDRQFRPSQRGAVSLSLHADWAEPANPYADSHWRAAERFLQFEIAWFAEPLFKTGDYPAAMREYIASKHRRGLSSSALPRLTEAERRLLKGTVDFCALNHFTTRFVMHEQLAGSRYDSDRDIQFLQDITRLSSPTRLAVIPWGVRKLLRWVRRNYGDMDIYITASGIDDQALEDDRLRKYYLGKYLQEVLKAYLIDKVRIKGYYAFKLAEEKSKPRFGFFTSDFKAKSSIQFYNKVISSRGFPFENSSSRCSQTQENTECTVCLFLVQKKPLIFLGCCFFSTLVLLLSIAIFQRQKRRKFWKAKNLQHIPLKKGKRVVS
Put plainly: cell-based or functional assay.

Take “GST-FGF21CT S204A (from UniProt Q9NSA1 169-209)”: in experiment [1], the concentration for half-maximal inhibition (IC50) is 5990 nM.

As for “GST-FGF21CT S206A (from UniProt Q9NSA1 169-209)”, in experiment [1], the half-inhibitory concentration (IC50) worked out at 5560 nM.

Turning to “GST-FGF21CT D192A (from UniProt Q9NSA1 169-209)”, the IC50 in experiment [1] worked out at 15900 nM.

Turning to “GST-FGF21CT P193A (from UniProt Q9NSA1 169-209)”, the half-inhibitory concentration (IC50) in experiment [1] worked out at 7160 nM.

For the molecule “GST-FGF21CT Y207A (from UniProt Q9NSA1 169-209)”, the IC50 in [1] came out at 6630 nM.

B1: FGF21 lacking the 10 C-terminal amino acids (ligand)
chain: HPIPDSSPLLQFGGQVRQRYLYTDDAQQTEAHLEIREDGTVGGAADQSPESLLQLKALKPGVIQILGVKTSRFLCQRPDGALYGSLHFDPEACSFRELLLEDGYNVYQSEAHGLPLHLPGNKSPHRDPAPRGPARFLPLPGLPPALPEPPGILAPQPPDVGSSDPLSMVGP
Regarding B1, the binding result in experiment [2] is “no binding”.

In experiment [3], LPEPPGILAPQPPDVGSSDPLSMVGGSQGRSPSYES (also called FGF21CT peptide) [FGF21CT synthetic peptide (C-terminal region of FGF21, residues 174-209 with P199G and A208E)] showed a Kd of 43 nM. That is a double-digit nanomolar value.

B2: FGFR1cD2D3 (ligand binding region of FGFR1c) (receptor, UniProt P11362 142-365, looked up)
chain: DNTKPNRMPVAPYWTSPEKMEKKLHAVPAAKTVKFKCPSSGTPNPTLRWLKNGKEFKPDHRIGGYKVRYATWSIIMDSVVPSDKGNYTCIVENEYGSINHTYQLDVVERSPHRPILQAGLPANKTVALGSNVEFMCKVYSDPQPHIQWLKHIEVNGSKIGPDNLPYVQILKTAGVNTTDKEMEVLHLRNVSFEDAGEYTCLAGNSIGLSHHSAWLTVLEALEER
modifications: fluorescently labeled in the MST assay
notes: domain: D2D3; the c splice form of FGFR1; also called FGFR1cD2D3 extracellular region
Take B2: the Kd in experiment [4] was 940 nM and ~1000 nM.

B3: GST-fused FGF21CT (GST-FGF21CT), wild type (other)
chain: GLPPALPEPPGILAPQPPDVGSSDPLSMVGPSQGRSPSYAS
modifications: not fully specified (N-terminus); also: fused to GST tag, letters not given here
notes: also called WT; not shown: glutathione S-transferase tag and linker encoded by the pGEX-4T-1 vector (GE Healthcare)
As to B3, the IC50 in experiment [5] was found to be 704 nM. Besides, binding in [6] was characterised by a dissociation constant (Kd) of 253 nM. Also, the “IC50 (read off the curve)” value in [7] and in experiment [8] was around 700 nM in each case.

B4: recombinant human FGF21 (amino acids 29-209 with L126R, P199G and A208E, N-terminal His6 tag) (ligand)
chain: HPIPDSSPLLQFGGQVRQRYLYTDDAQQTEAHLEIREDGTVGGAADQSPESLLQLKALKPGVIQILGVKTSRFLCQRPDGALYGSLHFDPEACSFRERLLEDGYNVYQSEAHGLPLHLPGNKSPHRDPAPRGPARFLPLPGLPPALPEPPGILAPQPPDVGSSDPLSMVGGSQGRSPSYES
modifications: fluorescently labeled with Monolith Protein Labeling Kit RED-NHS (fl-FGF21) in the MST assays
notes: Expressed in E. coli; also called fl-FGF21; wild-type FGF21; not shown: N-terminal His6 tag from the pET28a vector
On to B4, for which the binding result with β-Klotho lacking D2 is “no binding”. Further, the dissociation constant (Kd) in [9] came to 43.5 nM.

B5: R203W/L194F-mutated FGF21 (FGF21WF) (ligand)
chain: HPIPDSSPLLQFGGQVRQRYLYTDDAQQTEAHLEIREDGTVGGAADQSPESLLQLKALKPGVIQILGVKTSRFLCQRPDGALYGSLHFDPEACSFRELLLEDGYNVYQSEAHGLPLHLPGNKSPHRDPAPRGPARFLPLPGLPPALPEPPGILAPQPPDVGSSDPFSMVGPSQGWSPSYAS
notes: also called FGF21 carrying a double L194F/R203W mutations
For the molecule B5, in experiment [10], the Kd amounted to 3.4 nM and the “fold tighter binding than wild-type FGF21” value was above 10 fold. Further, the “stimulation of FGFR1c tyrosine phosphorylation in L6 cells coexpressing β-Klotho and FGFR1c” value in [11] is around 10 fold.
